Test results from IntAct's records for PubMed 24981741.

B1: Protein LYRIC (Mus musculus), Q80WJ7 (parent)
chain: MAARSWQDELAQQAEEGSARLRELLSVGLGFLRTELGLDLGLEPKRYPGWVILVGTGALGLLLLFLLGYGWAAACAGARKKRRSPPRKREEAAPPTPAPDDLAQLKNLRSEEQKKKNRKKLPEKPKPNGRTVEVPEDEVVRNPRSITAKQAPETDKKNEKSKKNKKKSKSDAKAVQNSSRHDGKEVDEGAWETKISHREKRQQRKRDKVLTDSGSLDSTIPGIENIITVTTEQLTTASFPVGSKKNKGDSHLNVQVSNFKSGKGDSTLQVSSRLNENLTVNGGGWSEKSVKLSSQLSEEKWNSVPPASAGKRKTEPSAWTQDTGDTNANGKDWGRNWSDRSIFSGIGSTAEPVSQSTTSDYQWDVSRNQPYIDDEWSGLNGLSSADPSSDWNAPAEEWGNWVDEDRASLLKSQEPISNDQKVSDDDKEKGEGALPTGKSKKKKKKKKKQGEDNSHTQDTEDLEKDTREELPVNTSKARPKQEKACSLKTMSTSDPAEVLIKNSQPVKTLPPAISAEPSITLSKGDSDNSSSQVPPMLQDTDKPKSNAKQNSVPPSQTKSETNWESPKQIKKKKKARRET
partner: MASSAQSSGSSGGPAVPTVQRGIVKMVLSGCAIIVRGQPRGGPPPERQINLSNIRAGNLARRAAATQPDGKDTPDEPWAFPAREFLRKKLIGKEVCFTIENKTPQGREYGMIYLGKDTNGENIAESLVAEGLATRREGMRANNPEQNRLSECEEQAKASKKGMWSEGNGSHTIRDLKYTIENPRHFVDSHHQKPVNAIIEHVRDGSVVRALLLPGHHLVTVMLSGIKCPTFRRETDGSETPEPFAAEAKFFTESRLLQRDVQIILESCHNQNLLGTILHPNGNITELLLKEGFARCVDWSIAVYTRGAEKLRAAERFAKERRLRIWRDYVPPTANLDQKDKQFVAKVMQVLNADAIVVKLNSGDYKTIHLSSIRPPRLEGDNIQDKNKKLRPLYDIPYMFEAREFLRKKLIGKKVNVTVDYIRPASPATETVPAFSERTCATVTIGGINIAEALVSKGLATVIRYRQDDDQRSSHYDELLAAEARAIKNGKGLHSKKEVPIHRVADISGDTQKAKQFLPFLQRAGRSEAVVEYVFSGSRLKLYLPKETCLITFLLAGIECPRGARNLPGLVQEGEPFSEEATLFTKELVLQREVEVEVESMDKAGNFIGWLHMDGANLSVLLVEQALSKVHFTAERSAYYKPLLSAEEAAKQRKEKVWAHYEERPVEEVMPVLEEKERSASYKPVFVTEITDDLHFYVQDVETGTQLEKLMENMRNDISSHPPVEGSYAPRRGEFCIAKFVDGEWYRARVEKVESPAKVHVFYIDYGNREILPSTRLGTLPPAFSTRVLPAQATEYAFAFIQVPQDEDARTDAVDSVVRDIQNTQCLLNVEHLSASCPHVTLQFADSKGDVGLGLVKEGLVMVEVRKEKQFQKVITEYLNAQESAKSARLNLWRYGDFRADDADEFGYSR

Variants of: B1
Conditions: with snd1_mouse Snd1, Q78PY7

Effect of a mutation on the interaction, disrupting interaction strength:
MAARSWQDELAQQAEEGSARLRELLSVGLGFLRTELGLDLGLEPKRYPGWVILVGTGALGLLLLFLLGYGWAAACAGARKKRRSPPRKREEAAPPTPAPDDLAQLKNLRSEEQKKKNRKKLPEKPKPNGRTVEVPEDEVVRNPRSITAKQAPETDKKNEKSKKNKKKSKSDAKAVQNSSRHDGKEVDEGAWETKISHREKRQQRKRDKVLTDSGSLDSTIPGIENIITVTTEQLTTASFPVGSKKNKGDSHLNVQVSNFKSGKGDSTLQVSSRLNENLTVNGGGWSEKSVKLSSQLSEEKWNSVPPASAGKRKTEPSAWTQDTGDTNANGKDWGRNWSDRSIFSGIGSTAEPVSQSTTSDYQWDVSRNQPYIDDEWSGLNGLSSADPSSDWNAPAEEDGNWVDEDRASLLKSQEPISNDQKVSDDDKEKGEGALPTGKSKKKKKKKKKQGEDNSHTQDTEDLEKDTREELPVNTSKARPKQEKACSLKTMSTSDPAEVLIKNSQPVKTLPPAISAEPSITLSKGDSDNSSSQVPPMLQDTDKPKSNAKQNSVPPSQTKSETNWESPKQIKKKKKARRET [W398D]
MAARSWQDELAQQAEEGSARLRELLSVGLGFLRTELGLDLGLEPKRYPGWVILVGTGALGLLLLFLLGYGWAAACAGARKKRRSPPRKREEAAPPTPAPDDLAQLKNLRSEEQKKKNRKKLPEKPKPNGRTVEVPEDEVVRNPRSITAKQAPETDKKNEKSKKNKKKSKSDAKAVQNSSRHDGKEVDEGAWETKISHREKRQQRKRDKVLTDSGSLDSTIPGIENIITVTTEQLTTASFPVGSKKNKGDSHLNVQVSNFKSGKGDSTLQVSSRLNENLTVNGGGWSEKSVKLSSQLSEEKWNSVPPASAGKRKTEPSAWTQDTGDTNANGKDWGRNWSDRSIFSGIGSTAEPVSQSTTSDYQWDVSRNQPYIDDEWSGLNGLSSARPSSRDNAPAEEWGNWVDEDRASLLKSQEPISNDQKVSDDDKEKGEGALPTGKSKKKKKKKKKQGEDNSHTQDTEDLEKDTREELPVNTSKARPKQEKACSLKTMSTSDPAEVLIKNSQPVKTLPPAISAEPSITLSKGDSDNSSSQVPPMLQDTDKPKSNAKQNSVPPSQTKSETNWESPKQIKKKKKARRET [D386R;D390R;W391D]
MAARSWQDELAQQAEEGSARLRELLSVGLGFLRTELGLDLGLEPKRYPGWVILVGTGALGLLLLFLLGYGWAAACAGARKKRRSPPRKREEAAPPTPAPDDLAQLKNLRSEEQKKKNRKKLPEKPKPNGRTVEVPEDEVVRNPRSITAKQAPETDKKNEKSKKNKKKSKSDAKAVQNSSRHDGKEVDEGAWETKISHREKRQQRKRDKVLTDSGSLDSTIPGIENIITVTTEQLTTASFPVGSKKNKGDSHLNVQVSNFKSGKGDSTLQVSSRLNENLTVNGGGWSEKSVKLSSQLSEEKWNSVPPASAGKRKTEPSAWTQDTGDTNANGKDWGRNWSDRSIFSGIGSTAEPVSQSTTSDYQWDVSRNQPYIDDEWSGLNGLSSADPSSDWNAPARRDGNWVDEDRASLLKSQEPISNDQKVSDDDKEKGEGALPTGKSKKKKKKKKKQGEDNSHTQDTEDLEKDTREELPVNTSKARPKQEKACSLKTMSTSDPAEVLIKNSQPVKTLPPAISAEPSITLSKGDSDNSSSQVPPMLQDTDKPKSNAKQNSVPPSQTKSETNWESPKQIKKKKKARRET [E396R;E397R;W398D]
MAARSWQDELAQQAEEGSARLRELLSVGLGFLRTELGLDLGLEPKRYPGWVILVGTGALGLLLLFLLGYGWAAACAGARKKRRSPPRKREEAAPPTPAPDDLAQLKNLRSEEQKKKNRKKLPEKPKPNGRTVEVPEDEVVRNPRSITAKQAPETDKKNEKSKKNKKKSKSDAKAVQNSSRHDGKEVDEGAWETKISHREKRQQRKRDKVLTDSGSLDSTIPGIENIITVTTEQLTTASFPVGSKKNKGDSHLNVQVSNFKSGKGDSTLQVSSRLNENLTVNGGGWSEKSVKLSSQLSEEKWNSVPPASAGKRKTEPSAWTQDTGDTNANGKDWGRNWSDRSIFSGIGSTAEPVSQSTTSDYQWDVSRNQPYIDDEWSGLNGLSSADPSSDDNAPAEEWGNWVDEDRASLLKSQEPISNDQKVSDDDKEKGEGALPTGKSKKKKKKKKKQGEDNSHTQDTEDLEKDTREELPVNTSKARPKQEKACSLKTMSTSDPAEVLIKNSQPVKTLPPAISAEPSITLSKGDSDNSSSQVPPMLQDTDKPKSNAKQNSVPPSQTKSETNWESPKQIKKKKKARRET [W391D]
